8 molecules from patent publication US20140134737, “Alternative Splicing Modulators and Splice Variants and Their Use in the Control and Detection of Pluripotency and Differentiation” (Governing Council of the University of Toronto, published 2014) can be followed below.

Holding throughout (conditions): tags: GST fusion; label: radiolabeled
The target in data set [1] is T1, FOXP1-ES forkhead domain (exon 18b) (Homo sapiens).
T1 chain: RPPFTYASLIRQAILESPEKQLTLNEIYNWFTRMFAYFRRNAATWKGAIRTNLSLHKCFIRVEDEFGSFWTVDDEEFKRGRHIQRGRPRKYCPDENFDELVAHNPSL
The experiment in a line: EMSA; preferentially bound by FOXP1-ES. As to the method: (§1) FIG. 2(C) is an Electrophoresis Mobility Shift Assay (EMSA) validating PBM-derived consensus DNA binding sites for FOXP1 and FOXP1-ES. Radiolabeled dsDNA probes containing two copies of GTAAACAA (top left panel), AATAAACA (top middle panel) or CGATACAA (top right panel), or two copies of mutant versions of these sequences GGACACAA (bottom left panel), AATGGACA (bottom middle panel) or CGCGACAT (bottom right panel) were incubated in the absence (lanes 1, 9 and 19) or in the presence of increasing amounts (0.2 to 3.2 pmol) of recombinant GST-FOXP1 or GST-FOXP1-ES proteins. Positions mutated in the probe sequences are underlined. Shifted protein-dsDNA complexes are indicated by arrows and free dsDNA probe is indicated by an asterisk.

Data set [2] has as its target T1, FOXP1-ES forkhead domain (exon 18b). Kind of data set: EMSA; no appreciable shift. As to the method: (§2) Radiolabeled dsDNA probes containing two copies of each 8-mer (top panels), or two copies of mutant versions of these sequences CCACTCAA, ATGCAGGA, CTATCCAA and AACCCCAA (bottom panels) were incubated in the absence (lanes 1, 10, 19 and 28) or in the presence of increasing amounts (0.2 to 3.2 pmol) of recombinant GST-FOXP1 or GST-FOXP1-ES proteins. Positions mutated in the probe sequences are underlined. Shifted protein-dsDNA complexes are indicated by arrows and free dsDNA probe is indicated by an asterisk.

For data set [3], the target named is T2, FOXP1 forkhead domain (canonical, exon 18) (Homo sapiens, UniProt Q9H334 SEQ:465-555).
T2 sequence: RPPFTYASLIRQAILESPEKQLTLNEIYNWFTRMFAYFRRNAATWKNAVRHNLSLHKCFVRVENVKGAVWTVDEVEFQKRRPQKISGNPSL
The experiment in a line: EMSA; no appreciable shift. As to the method: as §2

In data set [4] the target is T1, FOXP1-ES forkhead domain (exon 18b). The experiment in a line: EMSA; no appreciable shift. The protocol:
as §1

In data set [5] the target is T2, FOXP1 forkhead domain (canonical, exon …). The experiment in a line: EMSA; no appreciable shift. The protocol:
as §1
The source holds these as a separate data set.

B1: AATAAACA x2 probe (dsDNA)
DNA 1: AATAAACACCAATAAACA
DNA 2: TGTTTATTGGTGTTTATT
For the molecule B1, the binding result in data set [1] is “binds”.

B2: ATGCAGGA x2 mutant (dsDNA)
DNA 1: ATGCAGGACCATGCAGGA
DNA 2: TCCTGCATGGTCCTGCAT
Turning to B2, the binding result in data set [2] and in data set [3] was “no binding” throughout.

B3: CGCGACAT x2 mutant (dsDNA)
DNA 1: CGCGACATCCCGCGACAT
DNA 2: ATGTCGCGGGATGTCGCG
As for B3, the binding result in data set [4] and in data set [5] was “no binding” in each case.

B4: AATGGACA x2 mutant (dsDNA)
DNA 1: AATGGACACCAATGGACA
DNA 2: TGTCCATTGGTGTCCATT
Regarding B4, the binding result in data set [4] and in data set [5] was “no binding” each time.

B5: AACCCCAA x2 mutant (dsDNA)
DNA 1: AACCCCAACCAACCCCAA
DNA 2: TTGGGGTTGGTTGGGGTT
For B5, the binding result in data set [2] and in data set [3] was “no binding” in each case.

B6: CCACTCAA x2 mutant (dsDNA)
DNA 1: CCACTCAACCCCACTCAA
DNA 2: TTGAGTGGGGTTGAGTGG
For B6, the binding result in data set [2] and in data set [3] was “no binding” each time.

B7: GGACACAA x2 mutant (dsDNA)
DNA 1: GGACACAACCGGACACAA
DNA 2: TTGTGTCCGGTTGTGTCC
Turning to B7, the binding result in data set [4] and in data set [5] was “no binding” throughout.

B8: CTATCCAA x2 mutant (dsDNA)
DNA 1: CTATCCAACCCTATCCAA
DNA 2: TTGGATAGGGTTGGATAG
As for B8, the binding result in data set [2] and in data set [3] was “no binding” in each case.
